This is an account of results in publication PMC5667506, “Potent and selective inhibition of SH3 domains with dirhodium metalloinhibitors” (Chemical Science, 2015).

“Also recorded” adds a separate entry of the source. Read-outs that look alike come from different tables or passages of the source. Rh2(OAc)3 = dirhodium(II) triacetate, bound to the side-chain carboxylate

The target in one test is Abl. Further details: method as in PMID 8718852. As to conditions: read-out: affinity for Abl; cited from earlier work.
For a further test, the target named is T1, Yes SH3 domain (Homo sapiens, UniProt P07947).
T1 construct: fyn, yes, lck, and src SH3 protein domains were prepared following published procedures; made in house
T1 sequence (P07947 91-152 limits assumed): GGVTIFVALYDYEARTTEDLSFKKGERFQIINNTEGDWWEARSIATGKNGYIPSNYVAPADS
The test can be described thus: ITC binding to Yes SH3 domain. How it is done:
(§1) All chemical reagents were purchased from Sigma-Aldrich and were used without further purification.
(§2) Peptide synthesis. All peptides were synthesized manually or with an AAPPTEC APEX 396 Automated Multipeptide Synthesizer using standard solid-phase Fmoc protocols.1,2 Peptides were prepared as C-terminal amides using Rink amide MBHA resin (AAPPTEC) and were acetylated at the N-terminus prior to cleavage from the resin. Peptides and metallopeptides were purified by reverse-phase HPLC.
(§3) HPLC separation. Reverse-phase HPLC was performed on a Shimadzu CBM-20A instrument with Phenomenex Jupiter 4μ Proteo 90A (250 × 15 mm preparative) and Phenomenex Jupiter 4μ Proteo 90A (250 × 4.6 mm analytical) columns. The columns were eluted with a gradient of acetonitrile in water (10-90%) (flow rates of 8 mL/min and 1 mL/min for preparative and analytical columns, respectively). Trifluoroacetic acid (0.1%) was added to all eluents.
(§4) FPLC separation. Analytical FPLC was performed on an ÄKTA instrument with Superdex Peptide PE 7.5/300 column. The column was equilibrated with buffer (150 mM NaCl, 50 mM Tris, pH 7.0) at flow rate of 0.2 mL/min.
(§5) ITC analysis. ITC experiments were carried out on a VP-ITC instrument (MicroCal) at 25 °C. Titrations of 275 μM peptide into 18 μM SH3 domain proteins were used for all titrations, except for the titration of S2ERh into Lyn SH3 domain, where the lower concentrations of 69 µM S2ERh peptide and 4 µM Lyn SH3 were used to attain a c-value for the titration within the accepted limts for ITC experiments ([…]).3
(§6) Heats of dilutions were measured independently for each experiment by titrating 275 μM peptide into buffer (20 mM phosphate buffer, pH 7, 150 mM NaCl, 1 mM EDTA). All experimental data were fitted using a one set of sites binding model in Origin software (MicroCal) except for the data with Hck SH3 domain. With Hck only, the non-peptide specific binding of dirhodium tetraacetate to Hck SH3 domain could not be treated as negligible, despite the very weak interaction (88 µM), due to the larger enthalpy contribution observed for non-specific binding to this SH3 domain, so the titrations of peptide into Hck were fitted using a 2 set of sites binding model where the stoichiometry for the second set of sites was fixed at 2.0. […]
(§7) Mass spectrometry. ESI-MS was performed on a Bruker Daltonics micrOTOF instrument.
(§8) Known compounds and proteins. Several metallopeptides (S2ERh, L3ERh, R5ERh, and 13DRh) were reported previously and were prepared by known protocols;4 alkyne-diazo 3,5 3-azido-7-hydroxycoumarin6 were synthesized following reported procedures; fyn, yes, lck, and src SH3 protein domains were prepared following published procedures.5 Abl, hck, and lyn SH3 domain plasmids were adapted from the previously reported genes;7 the gene templates were obtained from Addgene, ID

The target of a further test is T2, Hck SH3 domain (Homo sapiens, UniProt P08631).
T2 construct: The hck SH3 domain was amplified by PCR using Phusion DNA polymerase; GST (N, cleaved yes); made in house; host or cells: E. coli BL21 (DE3)
T2 sequence (P08631 77-139): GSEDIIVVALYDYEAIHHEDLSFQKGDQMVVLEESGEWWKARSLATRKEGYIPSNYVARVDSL
Description: ITC binding to Hck SH3 domain (two-sets-of-sites fit). As to conditions: 25 °C, high affinity specific site. On the procedure:
as §1, §2
(§9) HPLC separation. Reverse-phase HPLC was performed on a Shimadzu CBM-20A instrument with Phenomenex Jupiter 4μ Proteo 90A (250 × 15 mm preparative) and Phenomenex Jupiter 4μ Proteo 90A (250 × 4.6 mm analytical) columns. The columns were eluted with a gradient of acetonitrile in water (10-90%) (flow rates of 8 mL/min and 1 mL/min for preparative and analytical columns, respectively). Trifluoroacetic acid (0.1%) was added to all eluents. […]
as §5, §6, §7
Known compounds and proteins. Several metallopeptides (S2ERh, L3ERh, R5ERh, and 13DRh) were reported previously and were prepared by known protocols;4 alkyne-diazo 3,5 3-azido-7-hydroxycoumarin6 were synthesized following reported procedures; fyn, yes, lck, and src SH3 protein domains were prepared following published procedures.5 Abl, hck, and lyn SH3 domain plasmids were adapted from the previously reported genes;7 the gene templates were obtained from Addgene, ID […]
Table S1. Table of the thermodynamic parameters for binding of metallopeptides to SH3 domains, determined by isothermal […]
Protein Peptide Stoichiometry Kd ΔH -TΔS ΔG
(nM) (kcal mol-1) (kcal mol-1) (kcal mol-1)
* The binding isotherms for metallopeptide interactions with Hck were fitted using a two -sets-of-sites model with the stoichiometry for the second set of sites fixed to 2.0. The second set of binding sites was used to account for the weak, but not negligable, binding of the peptide to another surface of Hck SH3 domain, presumably through non-specific interactions of the dirhodium tetraacetate group. The thermodynamics for the high affinity specific binding site interaction are provided in this

A further test concerns the target T3, Abl SH3 domain (Homo sapiens, UniProt P00519).
T3 construct: The abl SH3 domain was amplified by PCR using Phusion DNA polymerase; GST (N, cleaved yes); made in house; host or cells: E. coli BL21 (DE3)
Description: ITC binding to Abl SH3 domain. As to conditions: for Kd / -TΔS / ΔG / ΔH: 25 °C. On the procedure:
as §1, §2, §3, §4, §5, §6, §7, §8

In another test the target is T4, Lck SH3 domain (Homo sapiens, UniProt P06239).
T4 construct: fyn, yes, lck, and src SH3 protein domains were prepared following published procedures; made in house
T4 sequence (P06239 61-121 limits assumed): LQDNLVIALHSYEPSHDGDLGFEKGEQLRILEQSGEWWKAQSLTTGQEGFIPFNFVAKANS
Description: ITC binding to Lck SH3 domain. Particulars: 25 °C. How it is done:
(§10) All chemical reagents were purchased from Sigma-Aldrich and were used without further purification. […]
as §5, §6
Known compounds and proteins. […]

For another test, the target named is T5, Lyn SH3 domain (Homo sapiens, UniProt P07948).
T5 construct: The lyn SH3 domain was amplified by PCR using Phusion DNA polymerase; GST (N, cleaved yes); made in house; host or cells: E. coli BL21 (DE3)
T5 sequence (P07948 62-121): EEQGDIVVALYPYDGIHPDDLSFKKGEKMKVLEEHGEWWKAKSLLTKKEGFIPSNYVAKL
The test can be described thus: ITC binding of metallopeptides to Lyn SH3 domain. Particulars: 25 °C.
Excerpt: The His96 is unique among Src-family sequences, and the His78 appears only in Hck and Lck. Individual amino-acid alterations are the only factors that might distinguish the nearly identical secondary structures and peptide-binding preferences of Src-family SH3 domains (cf. Fig. 1a and b). Based on a Src-family SH3-binding sequence (VSL12),[37] known to bind with similar affinity across Src-family SH3 domains,[38] we made metallopeptides with rhodium in different sites near the beginning of the SH3-binding peptide. […] The optimal metallopeptide, S2E^Rh, bound to Lyn with 6 nM affinity. The accuracy of ITC data is reduced for C values >1000 (C = [protein]/K d). Under these conditions the distribution of data points on the isotherm reduces the precision of the global fit. Since the enthalpic contributions to binding in the formation of the complexes described in this work were high, we were able to use a low protein concentration (4 μM) which ensured that our C values were well below this upper range. […] In broad terms, the thermodynamics—favourable enthalpy and unfavourable entropy—are consistent with previous examinations of peptide–SH3 binding (see Table S1 ^† for thermodynamic data).[39] Moving the location of the rhodium center toward the N-terminus, away from the histidine, led to a drop in binding affinity. The N13D^Rh metallopeptide, a convenient negative control with the rhodium center too far for histidine interactions, binds with micromolar activity, similar to simple SH3 binding of the parent peptide. We conclude that the vast affinity improvement is due to rhodium coordination to unique histidine residue(s).
as §1, §2, §9, §5, §6, §7
Known compounds and proteins. Several metallopeptides (S2ERh, L3ERh, R5ERh, and 13DRh) were reported previously and […]

Test [1] concerns the target T6, Full-length Lyn kinase (GST-tagged Lyn B) (Homo sapiens, UniProt P07948).
T6 construct: Full-length Lyn kinase (74 nM) was treated with substrate peptide and ATP; purchased Promega
The test can be described thus: Lyn kinase activation assay (ADP-Glo Kinase Assay). It counts as biochemical. Particulars: 74 nM Lyn, 5 min. How it is done: We examined phosphorylation of a peptide substrate at low enzyme concentration (0.074 μM) and short reaction time (t = 5 min) to minimize the alternative autophosphorylation activation pathway (Fig. 6). Kinase activation with traditional ligands has typically required high ligand concentrations (∼1 mM) to overcome the intramolecular nature of the SH3–kinase domain interaction.
Fig. 6 Activation of Lyn kinase activity by a metallopeptide, S2E^Rh, and the parent peptide, S2E. […] Full-length Lyn kinase (74 nM) was treated with substrate peptide and ATP. Kinase activity was measured after 5 min in an adaptation of reported methods.[5] See ESI ^† for details.
as §10
Kinase assay. ATP turnover by Lyn was measured using the ADP-GloTM Kinase Assay (Promega) according to the manufacturer’s protocol. Briefly, final concentrations of 72 μM ATP, 74 nM Lyn (GST-tagged Lyn B), and 240 μM substrate peptide (all from Promega) were combined in buffer (40 mM Tris, 50 μM dithiothreitol, 2 mM MnCl2 and 0.1 mg/mL BSA at pH 7.5) with a solution of the desired treatment (or control) in the same buffer for a final reaction volume of 5 µL. The kinase reaction was allowed to proceed at room temp. for 5 min from addition of ATP before the start of the ADP-Glo protocol halted the reaction. Chemiluminescence data were acquired on a Tecan Infinite M1000 microplate reader in white 384 well low volume plates (Corning Costar 3674) with an integration time of 250 ms per well. […]
On the technique in general: ADP-Glo first removes unused ATP, then detects ADP through luciferase.

The mark [2] stands for this setting: Yes SH3, ITC, 25 °C, read-out: SH3 Kd.

T3 sequence (P00519 60-121): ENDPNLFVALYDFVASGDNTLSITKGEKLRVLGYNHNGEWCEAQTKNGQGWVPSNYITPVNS
T6 sequence (P07948 1-491 isoform P07948-2): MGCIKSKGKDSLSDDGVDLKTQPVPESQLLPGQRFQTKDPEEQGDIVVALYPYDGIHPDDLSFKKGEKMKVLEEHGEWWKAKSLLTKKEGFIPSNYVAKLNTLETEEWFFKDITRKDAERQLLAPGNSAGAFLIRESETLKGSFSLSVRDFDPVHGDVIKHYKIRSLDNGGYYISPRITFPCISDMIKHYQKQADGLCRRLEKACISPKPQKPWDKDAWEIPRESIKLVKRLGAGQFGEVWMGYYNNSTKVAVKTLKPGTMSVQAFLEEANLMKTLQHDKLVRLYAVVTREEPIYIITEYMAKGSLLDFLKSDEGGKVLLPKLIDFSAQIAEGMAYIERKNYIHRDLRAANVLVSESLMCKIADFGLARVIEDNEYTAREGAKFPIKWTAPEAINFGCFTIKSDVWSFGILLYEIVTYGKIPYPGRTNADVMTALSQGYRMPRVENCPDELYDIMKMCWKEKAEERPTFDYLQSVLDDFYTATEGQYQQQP

Turning to APTYSPPPPP [p40], the Kd on Abl was 400 nM.

On to “N13D^Rh: negative control metallopeptide with the rhodium center too far for histidine interactions (VSLARRPLPPLPD; N-terminal acetyl, C-terminal amide)”, for which the Kd with Yes SH3 domain (Yes SH3, ITC, 25 °C, listed as N13DRh, read-out: SH3 Kd) came to 238 nM; with Yes SH3 domain (setting [2]), 301 nM; with Yes SH3 domain (Yes SH3, unit inferred, read-out: Affinity of designed rhodium(II) metallopeptides (Fig. 1d)) it was 299 nM; with Hck SH3 domain, 544 nM; with Abl SH3 domain, 8850 nM; in the test with Lck SH3 domain, 239 nM. The compound further yielded a Kd in the test with Lyn SH3 domain of 1200 nM.

With “L3E^Rh: rhodium(II) metallopeptide based on Src-family SH3-binding sequence (VSL12), rhodium at residue 3 (VSEARRPLPPLPN; N-terminal acetyl, C-terminal amide)”, the Kd with Yes SH3 domain (setting [2]) was 3740 nM; in the test with Hck SH3 domain, 52 nM; with Hck SH3 domain (listed as L3ERh), 22 nM; in the test with Lyn SH3 domain, 30 nM.

As to “R6E^Rh: rhodium(II) metallopeptide based on Src-family SH3-binding sequence (VSL12), rhodium at residue 6 (VSLAREPLPPLPN; N-terminal acetyl, C-terminal amide)”, the Kd in the test with Hck SH3 domain worked out at 51 nM; with Lck SH3 domain it was 3790 nM; with Lyn SH3 domain, 152 nM.

For the compound E^RhPTYSPPPPP [p40-A1E^Rh], at Abl SH3 domain, the Stoichiometry is recorded as 1.0, the “-TΔS” value turned out to be 8.9 kcal/mol, the ΔG was -10.5 kcal/mol and the ΔH is -19.4 kcal/mol.

Turning to APTE^RhSPPPPP [p40-Y4E^Rh], at Abl SH3 domain, the Stoichiometry was determined as 1.2, the “-TΔS” value was 5.3 kcal/mol, the ΔG is -7.0 kcal/mol and the ΔH was -12.3 kcal/mol.

As for “R5E^Rh: rhodium(II) metallopeptide based on Src-family SH3-binding sequence (VSL12), rhodium at residue 5; catalyst for Yes SH3 modification (VSLAERPLPPLPN; N-terminal acetyl, C-terminal amide)”, the Kd turned out to be 1740 nM in the test with Yes SH3 domain (setting [2]) and 81 nM with Lyn SH3 domain.

In the test with Abl SH3 domain, “E^RhPTYSPPPPP (Ac-E(Rh2(OAc)3)PTYSPPPPP-NH2; also: metal complex: Glu1 carboxylate bound to dirhodium(II) triacetate) [p40-A1E^Rh]” had a Kd of 22 nM.

For `CC(=O)[O-].CC(=O)[O-].CC(=O)[O-].CC(=O)[O-].[Rh+2].[Rh+2]` [Rh2(OAc)4, reference compound], on Hck SH3 domain, the “-TΔS” value was -1.0 kcal/mol, the Kd was found to be 89000 nM, the ΔG was -5.5 kcal/mol and the ΔH was -4.5 kcal/mol. Also, in test [1], the “Lyn kinase activation” value is recorded as “no activation; also recorded: had no effect on kinase activity”. On Lyn SH3 domain, the “-TΔS” value turned out to be 1.0 kcal/mol, the Kd was found to be 150000 nM, the ΔG is -5.2 kcal/mol and the ΔH is -6.3 kcal/mol.

Regarding “P12D^Rh: metallopeptide with the rhodium core moved to the 12th residue (VSLARRPLPPLDN; N-terminal acetyl, C-terminal amide)”, the Kd with Hck SH3 domain amounted to 2320 nM; with Lck SH3 domain, 79 nM.
